According to patent US20070055459A1 (Harvard, published 2007):

The binders below were run against T1, HSV UL42 (processivity factor of HSV DNA polymerase) (herpes simplex virus (HSV), UniProt P10226 1-488) (assay: cell-based or functional assay).
T1 sequence: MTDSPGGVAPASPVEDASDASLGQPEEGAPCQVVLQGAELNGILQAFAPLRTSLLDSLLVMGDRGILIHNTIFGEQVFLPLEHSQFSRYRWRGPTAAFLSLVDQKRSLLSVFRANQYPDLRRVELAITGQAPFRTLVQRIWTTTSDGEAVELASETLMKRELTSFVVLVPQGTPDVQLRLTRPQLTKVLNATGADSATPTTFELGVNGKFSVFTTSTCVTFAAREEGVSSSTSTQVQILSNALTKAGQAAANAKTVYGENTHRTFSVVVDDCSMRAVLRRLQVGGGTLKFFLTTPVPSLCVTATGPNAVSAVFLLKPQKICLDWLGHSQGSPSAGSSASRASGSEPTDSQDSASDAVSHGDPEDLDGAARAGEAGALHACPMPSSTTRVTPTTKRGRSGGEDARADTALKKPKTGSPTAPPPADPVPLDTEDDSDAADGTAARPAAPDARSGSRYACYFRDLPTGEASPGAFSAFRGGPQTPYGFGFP

ATAEETRRMLARAFDTLA [peptide E mutant H29A] and ATAEETRRMLHAAFDTLA [peptide E mutant R30A] cannot be ordered by “inhibition of long-chain DNA synthesis at 100 µM” value (“inhibition … at 100 µM” for short): < 20 % inhibition at 100 µM for the first, < 20 % inhibition at 100 µM for the second.

ATAAETRRMLHRAFDTLA [peptide E mutant E22A] and AAAEETRRMLHRAFDTLA [peptide E mutant T20A] cannot be ordered by “inhibition … at 100 µM” value: < 20 % inhibition at 100 µM for the first, < 20 % inhibition at 100 µM for the second.

Going from ATAEETRRMLHRAFDTAA [peptide E mutant L35A] to ATAEETRRMLHRAADTLA [peptide E mutant F32A], the “inhibition … at 100 µM” value falls from 50 % inhibition at 100 µM to < 20 % inhibition at 100 µM.

ATAEETRRALHRAFDTLA [peptide E mutant M27A] was tested, and the “inhibition … at 100 µM” value was 40 % inhibition at 100 µM.

ATAEEARRMLHRAFDTLA [peptide E mutant T24A] and ATAEETARMLHRAFDTLA [peptide E mutant R25A] fall in the same range of “IC50 relative to that of peptide E” value: 3 to 7 fold for the first, 3 to 7 fold for the second.

Molecular target: T1, HSV UL42 (processivity factor of HSV …)
Assay: cell-based or functional assay
Remark: another data set of the same source

ATAEETRRMLARAFDTLA [peptide E mutant H29A] and ATAEETRRMLHAAFDTLA [peptide E mutant R30A] cannot be ordered by “IC50, inhibition of long chain DNA synthesis” value (“IC50, inhibition” below): > 100 µM for the first, > 100 µM for the second.

ATAAETRRMLHRAFDTLA [peptide E mutant E22A] and AAAEETRRMLHRAFDTLA [peptide E mutant T20A] cannot be ordered by “IC50, inhibition” value: > 100 µM for the first, > 100 µM for the second.

First: DDVAARLRAAGFGAVGAGATAEETRRMLHRAFDTLA [Peptide A (C-terminal 36 amino acid residues of HSV DNA polymerase, Pol residues 1200-1235)]
Second: ATAEETRAMLHRAFDTLA [peptide E mutant R26A]
The “IC50, inhibition” value of the first is 8.2-fold lower: 1.7 µM for the first, 14 µM for the second.

Compared with ATAEETRRMLHRAFATLA [peptide E mutant D33A], ATAEETRRMLHRAFDALA [peptide E mutant T34A] is 5-fold lower in “IC50, inhibition” value: 50 µM for the first, 10 µM for the second.

Going from ATAEETRRMLHRAFDTAA [peptide E mutant L35A] to ATAEETRRMLHRAADTLA [peptide E mutant F32A], the “IC50, inhibition” value rises from 97 µM to > 100 µM.

First: ATAEETRRALHRAFDTLA [peptide E mutant M27A]
Second: ATAEETRRMAHRAFDTLA [peptide E mutant L28A]
The “IC50, inhibition” value of the first is higher: > 100 µM for the first, 18 µM for the second.

Going from ATAEEARRMLHRAFDTLA [peptide E mutant T24A] to ATAEETARMLHRAFDTLA [peptide E mutant R25A], the “IC50, inhibition” value falls from 77 µM to 40 µM (1.9-fold).

Going from ATAEETRRMLHRAFDTLA [Peptide E (last 18 residues of HSV DNA polymerase, Pol residues 1218-1235)] to ATAEATRRMLHRAFDTLA [peptide E mutant E23A], the “IC50, inhibition” value rises from 11 µM to 21 µM (1.9-fold).
